Assay results reported in the supplement of paper PMC11865577.

system: TO-3-N3-2 (biotin conjugate); test: pull-down binding Z-score (relative to library population); higher = stronger binding; settings: RNA library: Library-2
Procedure, shortened: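 Streptavidin beads bearing 100 pmol of a biotin-conjugated small molecule were incubated for 60 min at 25 °C with 1 μg of heat-folded, Cy5- or Cy3-end-labelled RNA library in phosphate/NaCl/KCl buffer. Hot SDS eluted the RNA that stayed bound after three washes, and this RNA was hybridised for 20 h at 55.5 °C to a DNA barcode microarray. Binding was expressed as a Z-score against the library mean and standard deviation, after subtraction of a beads-only signal and trimmed averaging of barcoded replicate probes.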

Row | Sequence | pull-down binding Z-score
1 | AAAAACACCCAAGAAGUUUUU | -0.458
2 | AAAAAUCUUAGGGAAUUUGUGUUUAAGAAUAUUGAUGGUUAUUUUAAAAUAUAUUCUAAGCACACGCCUAUUAAUUUAGUGCGUGAUCUCCCUCAGGGUUUUU | 0.151
3 | AAACCCGGUAAUUUUAACAAAGACUUCUAUGACUUUGCUGUGUCUAAGGGUUU [SHAPE_invivo_SARS-CoV-2_Motif_278] | -0.338
4 | AAACCUAAUGAAUUAUCUAGAGUAUUAGGUUU [SHAPE_invitro_SARS-CoV-2_Motif_132] | -0.157
5 | AAACGAACUAAAUAUUAUAUUAGUUUUUCUGUUU | 0.491
6 | AAACUCAAACCCGUCCUUGAUUGGCUUGAAGAGAAGUUUAAGGAAGGUGUAGAGUUU | 0.119
7 | AAACUUGUGCCCUUUUGGUGAAGUUUUUAACGCCACCAGAUUUGCAUCUGUUU [SHAPE_invivo_SARS-CoV-2_Motif_425] | -0.449
8 | AAAGGACUGGUAUGAUUUUGUAGAAAACCCAGAUAUAUUACGCGUAUACGCCAACUUAGGUGAACGUGUACGCCAAGCUUU | -0.0434
9 | AAAGUGCAGUGAAAAGAACAAUCAAGGGUACACACCACUGGUUGUUACUCACAAUUUUGACUUCACUUU | -0.0864
10 | AAAGUGCUUUUGUUAAUUUAAAACAAUUACCAUUUU [SHAPE_invivo_SARS-CoV-2_Motif_363] | -0.408
11 | AAAUAAGUACGAUACUUACCUG [U1snRNP5ss-3] | 0.279
12 | AAAUAAGUAUGAUACUUACCUG [U1snRNP5ss-4] | -0.0682
13 | AAAUUACCAUUUCAUCUUUUAAAUGGGAUUU | -0.151
14 | AAAUUCUUGGAACUGUUUCUUGGAAUUU | -0.163
15 | AAAUUGCCGAUAAGUAUGUCCGCAAUUU | -0.436
16 | AAAUUUACAAAACACCACCAAUUAAAGAUUUUGGUGGUUUUAAUUU [DMSMaPseq_invitro_SARS-CoV-2_Motif_425] | 0.331
17 | AAAUUUACAAGAAUUU [SHAPE_invivo_SARS-CoV-2_Motif_380] | -0.556
18 | AAAUUUUUGGCUUUGUGUGCUGACUCUAUCAUUAUUGGUGGAGCUAAACUUAAAGCCUUGAAUUU [SHAPE_invivo_SARS-CoV-2_Motif_45] | -0.123
19 | AACAAAUGUGUCAAUUUCAACUUCAAUGGUUUAACAGGCACAGGUGUU | -0.221
20 | AACACCAGUUUACUCAUUCUUACCUGGUGUU | -0.421
21 | AACACUUCCCACAGAAGUGUU | -0.407
22 | AACAGCAGACAACCCUUAAGGGUGUAGAAGCUGUU | -0.692
23 | AACAGGAGUCACCUUUUGUU | -0.0265
24 | AACAUUAACCUCCACACGCAAGUUGUGGACAUGUCAAUGACAUAUGGACAACAGUUUGGUCCAACUUAUUUGGAUGGAGCUGAUGUU | -0.423

Row | Sequence | pull-down binding Z-score
25 | AACAUUUACUUAUGCAUCAGCAUUGUGGGAAAUCCAACAGGUUGUAGAUGCAGAUAGUAAAAUUGUU [DMSMaPseq_invitro_SARS-CoV-2_Motif_222] | -0.0746
26 | AACCAGUUAACUGGUU [SHAPE_invivo_SARS-CoV-2_Motif_126] | -0.406
27 | AACCAUACAGGUGUUGUUGGAGAAGGUU [DMSMaPseq_invitro_SARS-CoV-2_Motif_31] | 0.125
28 | AACCCUCACCUUAUGGGUU | -0.745
29 | AACGAACUUUAAAAUCUGUGUGGCUGUCACUCGGCUGCAUGCUUAGUGCACUCACGCAGUAUAAUUAAUAACUAAUUACUGUCGUU | -0.0969
30 | AACGGGGCGGGCCCUGGGCGGGGUAA [G4_2A2_VEGF-Pu22-mt2] | 10.6
31 | AACGGGGCGGGCCGGGGGCGGGGUAA [G4_2A2_VEGF-Pu22] | 10.4
32 | AACGGGGCGGGCCUCGGGCGGGGUAA [G4_2A2_VEGF-Pu22-mt3] | 10.6
33 | AACGGGGCGGGCCUGGGCGGGGUAA [G4_2A2_VEGF-Pu22-del] | 11
34 | AACGGGGCGGGCCUUGGGCGGGGUAA [G4_2A2_VEGF-Pu22-mt] | 10.6
35 | AACUACUAUUCAAACAAUUGUUGAGGUUCAACCUCAAUUAGAGAUGGAACUUACACCAGUUGUUCAGACUAUUGAAGUGAAUAGUUUUAGUGGUU | -0.609
36 | AACUGAAAGUAAACCUUCAGUU | -0.384
37 | AACUGCUUUUGGCUUAGUUGCAGAGUGGUU | -0.132
38 | AACUGGUAAUACACUUCAGUGUAUAAUGCUAGUU | -0.418
39 | AACUGUGAUGUUGUAAUAGGAAUUGUCAACAACACAGUU | -0.0554
40 | AACUUCUUAAGAGUGCUUAUGAAAAUUUUAAUCAGCACGAAGUU | 0.972
41 | AACUUUAAUGUU [SHAPE_invitro_SARS-CoV-2_Motif_263] | -0.765
42 | AACUUUAGCUUGUUUUGUGCUUGCUGCUGUU | -0.0892
43 | AAGAAAGUUGAUGGUGUUGUCCAACAAUUACCUGAAACUUACUU [DMSMaPseq_invitro_SARS-CoV-2_Motif_358] | -0.423
44 | AAGAAGCUGCGCUGUGCACCUUUUU [DMSMaPseq_invitro_SARS-CoV-2_Motif_178] | -0.354
45 | AAGAAGGUCAAAUCAAUGAUAUGAUUUUAUCUCUUCUU | 0.176
46 | AAGACUCAUCUCUAUGAUGGGUUUU | -0.575
47 | AAGAGAAAGUCAACAUCAAUAUUGUUGGUGACUUUAAACUU | -0.0741
48 | AAGCUGAUGAGUACGAACUUAUGUACUCAUUCGUUU | -0.284

Row | Sequence | pull-down binding Z-score
49 | AAGGAGCUGGUGGCCAUAGUUACGGCGCCGAUCUAAAGUCAUUUGACUUAGGCGACGAGCUUGGCACUGAUCCUU [DMSMaPseq_invitro_SARS-CoV-2_Motif_14] | 0.134
50 | AAGGAUGCUACUCCUU | -0.789
51 | AAGGCUGAUGAAACUCAAGCCUU | -0.269
52 | AAGGGAGGGGCGGGUCGGGAA [G4_2A2_NRAS] | 11.1
53 | AAGGGGGCCGUGGGGUGGGAGCUGGGGAA [G4_2A2_BCL2] | 9.67
54 | AAGGUAAAACCAACAGUGGUUGUUAAUGCAGCCAAUGUUUACCUU [DMSMaPseq_invitro_SARS-CoV-2_Motif_60] | -0.217
55 | AAGGUAAGAGGGAUACUUACCUG [U1snRNP5ss-26] | -0.286
56 | AAGGUACAGCAGAUACUUACCUG [U1snRNP5ss-22] | 0.198
57 | AAGUGCUUUUGUUAAUUUAAAACAAUUACCAUUU [SHAPE_invitro_SARS-CoV-2_Motif_354] | -0.225
58 | AAGUUAAUUUUCCUCUGGCUGUUAUGGCCAGUAACUU [SHAPE_invivo_SARS-CoV-2_Motif_506] | -0.439
59 | AAGUUUGUUCGCAUUCAACCAGGACAGACUU [DMSMaPseq_invitro_SARS-CoV-2_Motif_187] | 0.0441
60 | AAUAACUUACCUUUUAAGUUGACAUGUGCAACUACUAGACAAGUUGUU | -0.415
61 | AAUAGAAGAAUUAUUCUAUU [SHAPE_invitro_SARS-CoV-2_Motif_349] | -0.687
62 | AAUAUUGCUUUGCUUGUACAGUAAGUGACAACAGAUGUUUCAUCUCGUUGACUUUCAGGUUACUAUAGCAGAGAUAUU [DMSMaPseq_invitro_SARS-CoV-2_Motif_488] | 0.152
63 | AAUCAAAAAGAGUUGAUU [DMSMaPseq_invitro_SARS-CoV-2_Motif_439] | -0.434
64 | AAUCAUACAUCACCAGAUGUUGAUU [SHAPE_invitro_SARS-CoV-2_Motif_454] | -0.477
65 | AAUGAGUUUUACGCAUAUUUGCGUAAACAUU | -0.413
66 | AAUGUAGUAGAAUUAUACCUGCACGUGCUCGUGUAGAGUGUUUUGAUAAAUUCAAAGUGAAUUCAACAUUAGAACAGUAUGUCUUUUGUACUGUAAAUGCAUU | 0.0794
67 | AAUGUUUUAUUCUCUACAGUGUUCCCACUUACAAGUUUUGGACCACUAGUGAGAAAAAUAUU [DMSMaPseq_invitro_SARS-CoV-2_Motif_260] | -0.434
68 | AAUUAUAAAUUACCAGAUGAUUUUACAGGCUGCGUUAUAGCUUGGAAUUCUAACAAUCUUGAUUCUAAGGUUGGUGGUAAUUAUAAUU | -0.123
69 | AAUUAUGAAGAUUUACUCAUUCGUAAGUCUAAUCAUAAUU | -0.3
70 | AAUUGAUUCUUACUUUGUAGUUAAGAGACACACUUUCUCUAACUACCAACAUGAAGAAACAAUU | 0.0491
71 | ACAACAACCAUAAAACCAGUUACUUAUAAAUUGGAUGGUGUUGU | -0.38
